Where “and” joins values, the source holds several entries; their conditions need not be identical. Equal values may be shown once. Positions of bridges follow the written chain, without caps; N, C: chain ends. Non-standard residues stand in square brackets, D forms with d.

Sequences and labels used below:
B1: JBS2734 (peptide)
chain: Ac-TGLVSAGWYDYN[dA]DHYREFT-NH2
SMILES: CC(=O)N[C@H](C(=O)NCC(=O)N[C@@H](CC(C)C)C(=O)N[C@H](C(=O)N[C@@H](CO)C(=O)N[C@@H](C)C(=O)NCC(=O)N[C@@H](Cc1c[nH]c2ccccc12)C(=O)N[C@@H](Cc1ccc(O)cc1)C(=O)N[C@@H](CC(=O)O)C(=O)N[C@@H](Cc1ccc(O)cc1)C(=O)N[C@@H](CC(N)=O)C(=O)N[C@H](C)C(=O)N[C@@H](CC(=O)O)C(=O)N[C@@H](Cc1c[nH]cn1)C(=O)N[C@@H](Cc1ccc(O)cc1)C(=O)N[C@@H](CCCNC(=N)N)C(=O)N[C@@H](CCC(=O)O)C(=O)N[C@@H](Cc1ccccc1)C(=O)N[C@H](C(N)=O)[C@@H](C)O)C(C)C)[C@@H](C)O
B2: JBS3162 (peptide)
chain: Ac-TCLVSAGWYDCYNFDHYREFT-NH2
modifications: disulfide 2-11
SMILES: CC(=O)N[C@H](C(=O)N[C@H]1CSSC[C@@H](C(=O)N[C@@H](Cc2ccc(O)cc2)C(=O)N[C@@H](CC(N)=O)C(=O)N[C@@H](Cc2ccccc2)C(=O)N[C@@H](CC(=O)O)C(=O)N[C@@H](Cc2c[nH]cn2)C(=O)N[C@@H](Cc2ccc(O)cc2)C(=O)N[C@@H](CCCNC(=N)N)C(=O)N[C@@H](CCC(=O)O)C(=O)N[C@@H](Cc2ccccc2)C(=O)N[C@H](C(N)=O)[C@@H](C)O)NC(=O)[C@H](CC(=O)O)NC(=O)[C@H](Cc2ccc(O)cc2)NC(=O)[C@H](Cc2c[nH]c3ccccc23)NC(=O)CNC(=O)[C@H](C)NC(=O)[C@H](CO)NC(=O)[C@H](C(C)C)NC(=O)[C@H](CC(C)C)NC1=O)[C@@H](C)O

The target in one test is T1, human Protein S (UniProt P07225 42-676).
T1 chain: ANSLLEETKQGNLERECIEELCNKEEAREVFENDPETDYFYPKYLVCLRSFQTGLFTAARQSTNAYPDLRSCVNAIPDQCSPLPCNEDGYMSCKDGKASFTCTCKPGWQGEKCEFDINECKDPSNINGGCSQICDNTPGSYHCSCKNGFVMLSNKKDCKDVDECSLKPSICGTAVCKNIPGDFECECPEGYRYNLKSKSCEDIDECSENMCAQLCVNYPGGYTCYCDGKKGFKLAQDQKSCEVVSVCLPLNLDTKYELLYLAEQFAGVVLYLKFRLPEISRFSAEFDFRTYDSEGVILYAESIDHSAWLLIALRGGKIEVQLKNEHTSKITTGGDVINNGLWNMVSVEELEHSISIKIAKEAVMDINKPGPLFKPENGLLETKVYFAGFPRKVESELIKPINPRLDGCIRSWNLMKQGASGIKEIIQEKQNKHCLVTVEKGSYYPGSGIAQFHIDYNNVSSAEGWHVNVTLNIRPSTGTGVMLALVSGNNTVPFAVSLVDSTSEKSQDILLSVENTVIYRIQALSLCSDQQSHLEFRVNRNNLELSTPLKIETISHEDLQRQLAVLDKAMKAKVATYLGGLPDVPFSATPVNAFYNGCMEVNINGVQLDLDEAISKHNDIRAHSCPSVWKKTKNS
Put plainly: LANCE competition. In a few lines: (§1)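 IC50 was derived by non-linear regression of the acceptor emission in a LANCE time-resolved FRET competition assay using europium-labelled Protein S, ULight-labelled streptavidin, a biotinylated tracer peptide and three-fold titrations of unlabelled test peptide. Reactions of 50 µl contained 10 nM Protein S, 100 nM streptavidin and 300 nM tracer at final concentration (2 nM Protein S and 60 nM tracer on a Tecan F500), were kept 1 hour at room temperature, and were read at Ex 340 nm, Em 665 nm.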
Broadly, the IC50 is the concentration at which inhibition is half-maximal. Read a low IC50 as higher potency. Ac-TGLVSAGWYNYNFDHYREFT-NH2 [JBS2823] yielded an IC50 of 13.5 nM.

In turn, Ac-GAHVSAGWYDYNFDHYREFT-NH2 [JBS2681] displayed an IC50 of 18.7 nM.

Ac-TGHVSAGWYDYNSDHYREFT-NH2 [JBS2659]: the concentration for half-maximal inhibition (IC50) was 16.4 nM.

In turn, Ac-TGHVSAGWYDYNFDHYRE-NH2 [JBS2678] returned an IC50 of 1810 nM.

Molecule Ac-TGHVSAGWYDYNFDHYSEFT-NH2 [JBS2663] registered an IC50 of 28.4 nM.

Ac-TAHVSAGWYDYNFDLYREFT-NH2 [JBS2680]: the IC50 was 6 nM.

Ac-TGLVSAGWYDYNFDHYTEFT-NH2 [JBS2887]: the IC50 stood at 4 nM.

Ac-SGHVSAGWYDYNFDHYREFT-NH2 [JBS2648] gave an IC50 of 18.6 nM.

Ac-TGLVSAGWYDYNMDHYREFT-NH2 [JBS2806] came in with an IC50 of 5.7 nM.

As to Ac-TGLVSAGWYDYNFDHYIEFT-NH2 [JBS2790], the IC50 came out at 3.4 nM.

As to Ac-TGLVEAGWYDYNFDHYREFT-NH2 [JBS2740], the IC50 was found to be 16.4 nM.

Ac-TGLVSAGWYDYNFDHYWEFT-NH2 [JBS2924] displayed an IC50 of 3.6 nM. Against the preceding molecule, the IC50 is about 4.6-fold lower.

Ac-TGLVSAGWYDYNFDTYREFT-NH2 [JBS2885] registered an IC50 of 4.4 nM.

On to Ac-TGLVSAGWYDYNFDHYEEFT-NH2 [JBS2752], for which the IC50 was 6.8 nM. This IC50 lies about 1.5-fold higher than the previous one.

With Ac-TGLVSAGWYDYNFDQYREFT-NH2 [JBS2847], the IC50 was 5.4 nM.

For the molecule Ac-MGLVSAGWYDYNFDHYREFT-NH2 [JBS2794], the half-inhibitory concentration (IC50) is 4 nM and 5.6 nM.

The molecule Ac-TGLVSAGWYDYNFDHYHEFT-NH2 [JBS2770] returned an IC50 of 5.2 nM.

Molecule Ac-GGHVSAGWYDYNKDHYREFT-NH2 [JBS2676] showed an IC50 of 11.6 nM. Compared with the last molecule, the IC50 is about 2.2-fold higher.

The molecule Ac-TAHVSAGWYDYNFDDYREFT-NH2 [JBS2679] gave a 50% inhibitory concentration (IC50) of 30 nM. Against the preceding molecule, the IC50 is about 2.6-fold higher.

The molecule Ac-TGFVSAGWYDYNFDHYREFT-NH2 [JBS2612] had an IC50 of 17 nM.

On to Ac-EGYVSAGWYDYNTDTYYEFE-NH2 [JBS3222], for which the concentration for half-maximal inhibition (IC50) was found to be 1.5 nM.

Take Ac-TGLVSAGWYDYNFDHYMEFT-NH2 [JBS2810]: the concentration for half-maximal inhibition (IC50) was 4.4 nM and 5.5 nM.

As for Ac-FGHVSAGWYDYNFDHYREFT-NH2 [JBS2610], the IC50 came out at 15.5 nM.

On to TGLVSAGWYDYNFDHYREFTC [JBS2713], for which the IC50 came out at 20.1 nM. This IC50 and that of the molecule before are within 1.5-fold of each other.

For the molecule Ac-TGHVSAGWYDYNFDFYREFT-NH2 [JBS2623], the concentration for half-maximal inhibition (IC50) worked out at 15.1 nM.

Ac-TGLVSAGWYDNNFDHYREFT-NH2 [JBS2845] yielded an IC50 of 8.4 nM. This IC50 lies about 1.8-fold lower than the previous one.

As for Ac-TGHVSAGWYDYNFDHYRPFT-NH2 [JBS2645], the IC50 was found to be 9.4 nM.

Take Ac-TGLVSAGWYDYNNDHYREFT-NH2 [JBS2825]: the IC50 worked out at 4.4 nM. This IC50 lies about 2.1-fold lower than the previous one.

Molecule Ac-TGLVSAGWYDYNFDIYREFT-NH2 [JBS2788] returned an IC50 of 2.2 nM.

Ac-PGHVSAGWYDYNFDHYREFT-NH2 [JBS2628] came in with an IC50 of 27 nM. Against the preceding molecule, the IC50 is about 12-fold higher.

In turn, Ac-GGHVSAGWYDYNADHYREFT-NH2 [JBS2684] displayed an IC50 of 12.5 nM.

Ac-TGLVSAGWYDYNFDHYVEFT-NH2 [JBS2905] registered an IC50 of 5.9 nM.

Ac-TFHVSAGWYDYNFDHYREFT-NH2 [JBS2611] returned an IC50 of 12.5 nM. This IC50 is about 2.1-fold higher than that of the molecule before.

Regarding Ac-GAHVSAGWYDYNFDLYREFT-NH2 [JBS2683], the IC50 is 5.6 nM.

Take Ac-GGHVSAGWYDYNFDLYREFT-NH2 [JBS2682]: the IC50 was determined as 7.5 nM.

Turning to Ac-TGLVSAGWYDYNFDVYREFT-NH2 [JBS2903], the IC50 is 3.1 nM.

On to Ac-TGLVSAGWYDYNFDEYREFT-NH2 [JBS2750], for which the IC50 was 3.6 nM. This IC50 and that of the molecule before are within 1.5-fold of each other.

As to Ac-KGHVSAGWYDYNFDHYREFT-NH2 [JBS2590], the IC50 worked out at 11.4 nM. This IC50 is about 3.2-fold higher than that of the molecule before.

On to Ac-LGHVSAGWYDYNFDHYREFT-NH2 [JBS2570], for which the IC50 worked out at 18.8 nM. This IC50 lies about 1.6-fold higher than the previous one.

Ac-TSHVSAGWYDYNFDHYREFT-NH2 [JBS2649] returned an IC50 of 31.8 nM.

In turn, Ac-TGSVSAGWYDYNFDHYREFT-NH2 [JBS2650] showed an IC50 of 25.1 nM. This IC50 and that of the molecule before are within 1.5-fold of each other.

Regarding B1, the half-maximal inhibitory concentration (IC50) came out at 792 nM.

For a further test, the target named is T1, human Protein S. Put plainly: LANCE competition. The source holds these as a separate data set. In a few lines:
as §1
Regarding B2, the IC50 was 1510 nM.

For the molecule Ac-EYYVSAGWYDYNNDIYLEFE-NH2 [JBS3241], the IC50 amounted to 1.2 nM. This IC50 lies about 1300-fold lower than the previous one.

Source of the values: patent publication US20150246947A1 (BAXALTA, published 2015).
